For orientation: stoichiometry N means the number of molecules, sites or subunits per partner or assembly.

Two proteins from paper PMC3485694 (Structure (London, England : 1993), 2012) can be followed below.

This data set concerns the molecule itself. As to the kind of experiment: crystal structure.

B1: human HisRS Δ1–53_507–509 (domain or fragment, UniProt P12081 54-506, looked up)
chain: FVLKTPKGTRDYSPRQMAVREKVFDVIIRCFKRHGAEVIDTPVFELKETLMGKYGEDSKLIYDLKDQGGELLSLRYDLTVPFARYLAMNKLTNIKRYHIAKVYRRDNPAMTRGRYREFYQCDFDIAGNFDPMIPDAECLKIMCEILSSLQIGDFLVKVNDRRILDGMFAICGVSDSKFRTICSSVDKLDKVSWEEVKNEMVGEKGLAPEVADRIGDYVQQHGGVSLVEQLLQDPKLSQNKQALEGLGDLKLLFEYLTLFGIDDKISFDLSLARGLDYYTGVIYEAVLLQTPAQAGEEPLGVGSVAAGGRYDGLVGMFDPKGRKVPCVGLSIGVERIFSIVEQRLEALEEKIRTTETQVLVASAQKKLLEERLKLVSELWDAGIKAELLYKKNPKLLNQLQYCEEAGIPLVAIIGEQELKDGVIKLRSVTSREEVDVRREDLVEEIKRRTGQPL
Take B1: the “stoichiometry N” value was found to be 2.

B2: human HisRS Δ507–509 (domain or fragment, UniProt P12081 1-506, looked up)
chain: MAERAALEELVKLQGERVRGLKQQKASAELIEEEVAKLLKLKAQLGPDESKQKFVLKTPKGTRDYSPRQMAVREKVFDVIIRCFKRHGAEVIDTPVFELKETLMGKYGEDSKLIYDLKDQGGELLSLRYDLTVPFARYLAMNKLTNIKRYHIAKVYRRDNPAMTRGRYREFYQCDFDIAGNFDPMIPDAECLKIMCEILSSLQIGDFLVKVNDRRILDGMFAICGVSDSKFRTICSSVDKLDKVSWEEVKNEMVGEKGLAPEVADRIGDYVQQHGGVSLVEQLLQDPKLSQNKQALEGLGDLKLLFEYLTLFGIDDKISFDLSLARGLDYYTGVIYEAVLLQTPAQAGEEPLGVGSVAAGGRYDGLVGMFDPKGRKVPCVGLSIGVERIFSIVEQRLEALEEKIRTTETQVLVASAQKKLLEERLKLVSELWDAGIKAELLYKKNPKLLNQLQYCEEAGIPLVAIIGEQELKDGVIKLRSVTSREEVDVRREDLVEEIKRRTGQPL
As for B2, the binding result is “binds”.
